Measured values reported in article doi:10.1101/2020.11.19.389429.

Target: CHD7 full length WT (UniProt Q9P2D1)
Assay: single-molecule PIFE/smFRET

Chain of UniProt Q9P2D1 (Q9P2D1 whole entry): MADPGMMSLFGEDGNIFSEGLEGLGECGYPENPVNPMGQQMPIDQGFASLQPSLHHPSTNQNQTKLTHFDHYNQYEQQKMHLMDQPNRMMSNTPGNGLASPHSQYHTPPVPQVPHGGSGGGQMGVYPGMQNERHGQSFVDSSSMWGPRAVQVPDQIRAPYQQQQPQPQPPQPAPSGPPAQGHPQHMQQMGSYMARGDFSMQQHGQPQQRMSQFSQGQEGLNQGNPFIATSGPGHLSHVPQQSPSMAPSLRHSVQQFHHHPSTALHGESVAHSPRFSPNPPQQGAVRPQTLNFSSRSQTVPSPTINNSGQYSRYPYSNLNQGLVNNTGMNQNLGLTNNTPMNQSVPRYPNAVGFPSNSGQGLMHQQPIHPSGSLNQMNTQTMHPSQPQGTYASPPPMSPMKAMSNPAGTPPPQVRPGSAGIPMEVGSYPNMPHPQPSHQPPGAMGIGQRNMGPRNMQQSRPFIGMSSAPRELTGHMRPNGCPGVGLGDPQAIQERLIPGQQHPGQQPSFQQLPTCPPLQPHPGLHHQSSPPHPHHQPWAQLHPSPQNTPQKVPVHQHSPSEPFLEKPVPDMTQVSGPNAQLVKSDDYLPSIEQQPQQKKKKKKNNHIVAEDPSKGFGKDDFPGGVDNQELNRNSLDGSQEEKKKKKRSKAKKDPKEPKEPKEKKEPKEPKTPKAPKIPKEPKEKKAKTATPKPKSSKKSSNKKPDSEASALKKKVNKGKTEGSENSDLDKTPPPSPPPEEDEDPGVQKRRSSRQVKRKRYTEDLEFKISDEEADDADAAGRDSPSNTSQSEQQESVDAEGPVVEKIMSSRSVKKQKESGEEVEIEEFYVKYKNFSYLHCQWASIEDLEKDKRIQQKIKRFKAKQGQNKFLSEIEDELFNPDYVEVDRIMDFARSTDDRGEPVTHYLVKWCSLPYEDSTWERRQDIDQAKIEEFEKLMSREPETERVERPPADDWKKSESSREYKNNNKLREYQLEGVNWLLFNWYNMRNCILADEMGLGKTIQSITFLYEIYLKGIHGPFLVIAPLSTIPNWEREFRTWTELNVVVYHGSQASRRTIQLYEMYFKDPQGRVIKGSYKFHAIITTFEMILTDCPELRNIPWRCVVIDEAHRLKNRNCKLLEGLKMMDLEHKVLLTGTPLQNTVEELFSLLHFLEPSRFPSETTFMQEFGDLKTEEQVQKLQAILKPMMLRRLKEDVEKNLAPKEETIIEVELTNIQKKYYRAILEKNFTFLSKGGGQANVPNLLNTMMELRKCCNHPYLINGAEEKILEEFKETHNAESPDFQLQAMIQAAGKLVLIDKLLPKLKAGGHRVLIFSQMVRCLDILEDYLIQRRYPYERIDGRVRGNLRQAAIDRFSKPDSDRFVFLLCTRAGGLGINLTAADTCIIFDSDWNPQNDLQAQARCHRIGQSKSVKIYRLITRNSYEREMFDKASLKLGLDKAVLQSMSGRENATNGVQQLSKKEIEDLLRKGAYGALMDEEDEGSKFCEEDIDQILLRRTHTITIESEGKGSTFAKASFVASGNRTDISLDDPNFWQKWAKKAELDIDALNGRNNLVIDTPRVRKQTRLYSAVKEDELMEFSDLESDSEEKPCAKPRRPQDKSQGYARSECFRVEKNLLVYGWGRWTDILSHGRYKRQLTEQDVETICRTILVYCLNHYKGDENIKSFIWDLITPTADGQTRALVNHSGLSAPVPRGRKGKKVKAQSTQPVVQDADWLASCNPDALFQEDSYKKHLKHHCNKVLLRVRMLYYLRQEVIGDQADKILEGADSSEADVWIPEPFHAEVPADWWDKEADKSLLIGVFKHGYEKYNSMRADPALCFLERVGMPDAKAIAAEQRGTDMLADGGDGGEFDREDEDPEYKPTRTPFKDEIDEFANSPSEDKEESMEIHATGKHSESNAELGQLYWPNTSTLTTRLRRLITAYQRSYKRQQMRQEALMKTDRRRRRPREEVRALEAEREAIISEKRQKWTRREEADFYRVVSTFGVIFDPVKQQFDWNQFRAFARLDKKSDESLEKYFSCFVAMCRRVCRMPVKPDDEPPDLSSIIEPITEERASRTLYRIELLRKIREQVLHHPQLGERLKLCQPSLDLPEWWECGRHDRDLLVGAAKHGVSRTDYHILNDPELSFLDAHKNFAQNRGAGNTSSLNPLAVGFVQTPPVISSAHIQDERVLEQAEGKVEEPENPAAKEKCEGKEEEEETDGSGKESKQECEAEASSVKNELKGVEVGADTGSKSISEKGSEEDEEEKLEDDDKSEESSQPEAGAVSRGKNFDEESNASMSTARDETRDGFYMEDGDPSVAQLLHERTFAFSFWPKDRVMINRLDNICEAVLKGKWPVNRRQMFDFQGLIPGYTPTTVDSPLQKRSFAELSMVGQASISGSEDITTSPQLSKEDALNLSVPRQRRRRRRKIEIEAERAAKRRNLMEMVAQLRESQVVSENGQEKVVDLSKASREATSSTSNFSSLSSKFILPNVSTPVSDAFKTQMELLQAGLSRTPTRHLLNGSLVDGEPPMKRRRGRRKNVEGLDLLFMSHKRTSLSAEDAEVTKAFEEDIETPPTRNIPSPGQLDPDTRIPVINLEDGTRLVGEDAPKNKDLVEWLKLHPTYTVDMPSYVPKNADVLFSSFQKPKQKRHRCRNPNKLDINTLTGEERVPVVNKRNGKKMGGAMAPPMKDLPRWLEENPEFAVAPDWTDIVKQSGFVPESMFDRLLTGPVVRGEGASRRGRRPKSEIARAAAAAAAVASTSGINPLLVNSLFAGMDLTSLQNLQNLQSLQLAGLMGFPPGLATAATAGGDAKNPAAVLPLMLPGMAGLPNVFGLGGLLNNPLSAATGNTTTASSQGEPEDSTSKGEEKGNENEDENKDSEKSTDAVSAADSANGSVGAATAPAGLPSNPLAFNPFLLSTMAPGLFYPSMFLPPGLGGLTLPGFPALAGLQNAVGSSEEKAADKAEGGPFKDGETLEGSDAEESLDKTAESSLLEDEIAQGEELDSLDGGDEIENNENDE

GCCCTGGAGAATCCCGGTCTGCAGGCCGCTCAATTGGTCGTAGACAGCTCTAGCACCGCTTAAACGCACGTACGCGCTGTCCCCCGCGTTTTAACCGCCAAGGGGATTACTCCCTAGTCTCCAGGCACGTGTCAGATATATACATCCTGTGCATGTATTGAACAGCGACCTTGCCGGTGCCAGTCGGATAGTGTTCCGAGCTCCCACTCTAGAGGATCCCCGGGTACC (double strand) [smFRET 601 nucleosome, 3 bp exit linker, 78 bp entry linker]
binding signal (% of nucleosomes with PIFE): 76.5
